Source: patent publication US20250134019A1, “TRIKETONE DIOXYGENASE VARIANTS FOR HERBICIDE TOLERANCE” (Monsanto Technology LLC, priority 2022, published 2025)
Changes are numbered by the printed parent chain. Names may count otherwise.

B1: D08: Os.TDO variant D08, SEQ ID NO:18, 20 amino acid changes relative to Os.TDO (protein)
chain: MADESWRAPALVQELAAKGVEEPPSRYLLREQDRPDVKLVAAELPEPIPVVDLGRLDGAEEATKLRVALQNWGFFLLTNHGIEASLMDDVMNLSREFFNQPIERKQKFSNLIDGKHFQIEGYGTDRVVTQDQVLDWSDRLHLRVEPKEEQDLAFWPDHPESFRDVLHKYASGCKRIRDDIIQAMAKLLELDEDYFLDRFNEAPTFARFNYYPPCPRPDLVFGIRPHSDGGLLTILLVDKDVGGLQVQRDGKWSNVPATPHTLLINLGDTMEVMSNGIFKSPVHRVVTNAEKERISLAMLYSVNDEKDIEPAAGLLDENRPARYRKVSVEEFRAGIFGKFSRGERYIDSLRI
modifications: TDO variant sequence
B2: TDO_9: Os.TDO variant, SEQ ID NO:44, F199L-K279R relative to D08; control with poor activity (protein)
chain: B1 chain with F199L, K279R
modifications: TDO variant sequence

Experiments:
[1] = system: transgenic soybean plants; experiment: Field testing of variant D08 for mesotrione tolerance; type: in vivo; details: field setting, no control of temperature
Experimental: Since this testing was conducted in the field, there was no control on the temperature ranges the plants were exposed to.

[2] = system: transgenic soybean plants; experiment: TDO protein level (ELISA) and mesotrione injury of transgenic soybean at normal vs elevated temperature; type: in vivo; details: elevated temperature (99° F.)
Experimental: Os.TDO-transgenic soybean plants and wild-type control plants were grown at 80° F. until V2 growth stage, then half of the plants were transferred to 99° F. After 3 days, leaf samples were harvested to determine TDO protein levels, and plants were then treated with 2X and 8X rates of mesotrione. Crop injury ratings were taken 11 days after mesotrione treatment. […] The black bars represent TDO protein levels in parts per million per dry weight; the gray bars represent plant injury rate (%) to 2X and 8X mesotrione treatments.
Soybeans were planted and grown under typical greenhouse conditions (85° F. day, 75° F. night) until approximately V3 growth stage. At that time, half of the plants were moved to a higher temperature growth chamber (99° F. day, 82° F. night; 60% relative humidity) for three days prior to leaf sample collection and a spray application of 4X rate mesotrione. Mesotrione was applied to both greenhouse and growth chamber plants. Visual injury ratings were taken at 7 days after treatment. […] The gray bars represent mesotrione injury ratings at 85° F. and the black bars represent mesotrione injury ratings at 99° F. for these transgenic plants.
The TDO variants were grown at 85° F. (gray) vs 99° F. (black). […]
The enzyme activity was measured at room temperature for the hydroxylation of mesotrione, and was defined as Kcat/Km, M-1 sec-1 (specificity constant). […]

transgenic cotton plants = experiment: Mesotrione treatment of cotton plants expressing TDO variants, crop injury; type: in vivo; details: for Crop Injury (%), 210 g/ha (2X) Mesotrione / Crop Injury (%), 840 g/ha (8X) Mesotrione: R2 cotton sprayed at V3
Experimental: Cotton is a crop of interest that is often exposed to high temperature growing conditions and thus, selected TDO variants were tested in cotton. Three TDO variants, D08, TDO_6, and TDO_8 were transformed into cotton (along with the Os.TDO control) using similar expression elements in single-cassette vectors or as part of multi-cassette vectors. R2 transgenic cotton plants were then screened for tolerance to mesotrione. Sixteen plants from two events each per construct were sprayed with two rates (2X and 8X) of mesotrione at V3 stage under normal (80° F.) and hot (100° F.) growing conditions. In addition, the effect of heat treatment on TDO accumulation in cotton plants were measured by ELISA. Cotton plants were planted and grown under normal greenhouse conditions (80° F. day/70° F. night) until V3 growth stage. Half of the plants were then moved to a higher temperature growth chamber (100° F. day/82° F. night) for the heat treatment, whereas the remaining half of the plants stayed in the same greenhouse (80° F. day/70° F. night). At day 3 after the plants were placed under different temperature conditions, leaf samples were collected for TDO protein measurement. The plants in 100° F. growth chamber and in 80° F. greenhouse were both sprayed with 2X mesotrione (210 g a.i./ha). Leaf samples were collected again 7 days after mesotrione treatment (DAT: Days After Treatment) for protein assay. Table 5 compares protein levels of the TDO variants in transgenic cotton plants grown under the two tested conditions. The protein levels for the TDO variants were measured at three time points for plants: 1) just before entering the high temperature treatment, 2) three days following placement into control (normal growth temperature) or high temperature (100° F.), and 3) 7 days after a 2X mesotrione spray.

[3] = Enzyme activity (Kcat/Km) for hydroxylation of mesotrione at room temperature; type: biochemical; details: Round 2 high-throughput screens
Experimental: The enzyme activity was expressed as Kcat/Km, M-1 sec-1. […] The enzyme activity was measured at room temperature for the hydroxylation of mesotrione, and was defined as Kcat/Km, M-1 sec-1 (specificity constant). Of these variants, four were tested in soybean plants. […] TDO activity was measured by the second hydroxylation of mesotrione. For routine activity measurements of TDO and determining the kinetic properties of the second hydroxylation, the continuous change in […], which is specific to the second hydroxylation and subsequent non-enzymatic water removal (i.e. the conversion of hydroxy-mesotrione to oxy-mesotrione), was monitored. […] The reaction proceeded until the maximum […] was obtained (usually 20-120 minutes depending upon the concentration of mesotrione) and the linear portion of the curve was determined by visual inspection. […] The reaction mixtures were analyzed by HPLC and mass spectrophotometry. By product conversation followed by peak integration on HPLC, a linear plot was obtained and the extinction co-efficient delta between the substrate (mesotrione) and the second product (oxy-mesotrione) was obtained according to the equation […]=(εp-εs)*bΔp where […] is the change of absorbance at 330 nm and b is the light path.

[4] = system: transgenic soybean plants; experiment: Response of R0 soybean plants transformed with Round 2 TDO variants to mesotrione; type: in vivo; details: R0 transgenic soybean sprayed with mesotrione
Excerpt: The next set of experiments was focused on determining if the balance between improved enzyme stability could outweigh a reduction in activity observed at optimal temperatures in soybean plants. […] To test this hypothesis, the eight variants from Round 2 biochemical analysis described in the preceding paragraph were transformed into soybean through Agrobacterium-mediated transformation, along with three controls. One of the controls (TDO_9) was a variant from the high-throughput screens that had poor activity. Two other controls were the D08 variant and the Os.TDO. R0 transgenic soybean plants were sprayed with the mesotrione herbicide to screen for herbicide tolerance. […] These included the Os.TDO control, the D08 variant and one Round 2 variant. The plants were scored for percent injury as described in the previous examples.

Molecule	tolerance to mesotrione spray treatment [1]	injury ratings after mesotrione application relative to Os.TDO control [2]	Crop Injury (%), 210 g/ha (2X) Mesotrione (transgenic cotton plants; Under 80° F.)	Crop Injury (%), 840 g/ha (8X) Mesotrione (transgenic cotton plants; Under 80° F.)	Crop Injury (%), 210 g/ha (2X) Mesotrione (transgenic cotton plants; Under 100° F.)	Crop Injury (%), 840 g/ha (8X) Mesotrione (transgenic cotton plants; Under 100° F.)	injury rates relative to Os.TDO controls (transgenic cotton plants; cotton at the higher temperature)	activity in high-throughput screens [3]	R0 % Injury [4]
B1	good tolerance	possibly trending lower injury relative to the Os.TDO control	0%	0%	0%	0%	trending even lower than the Os.TDO controls	–	–
B2	–	–	–	–	–	–	–	poor activity	36%
